This data set has as its system HEK293T. Kind of data set: median enrichment of reporter reads in eGFP-reduced (low/intermediate) vs eGFP-high sorted cells (eGFP-extension fusion abundance) (ratio); higher = stronger loss of eGFP-fusion protein abundance (more destabilising extension).
As for WEAGWG [RPS6KB2], the median enrichment was determined as 1.06.
As for WECRSAGRREE [CNPY1], the figure is 7.46; as for WEDPPEE [IGF1], 1.04; as for “WEDRPAASWSREASVIAHTQFRFPPLYRQEVNLPGAEHPPKESPLNNTPPPRQECPNPNDPSFPNE [EDN3]”, 0.582.
As for WEKN [C12orf65], the figure is 0.333.
To WEKQAKEKSVTVPL [KIDINS220] belongs 0.839.
On to WEKSYKCKECGKPLDDPQTLMNMRKFIL [ZNF141], for which the median enrichment amounted to 11.7.
As for WELLFLGEGEEGKGPGSRGTRG [EPHB1], the figure is 5.5.
As for “WEMVGIRLRAASTQSQSKASLLMCEFTNSDGSSHILQMLSLPAG [ITSN2]”, the figure is 19.2; as for WEPTACRCRRMRGCRDARRRPRSQPTTPPPA [FOXL2], 17.5.
To “WERPGGGAHWEGQDSVPALILPCPDVSCFAQRSFLSTPLIPRLVPREGWRPGHGPSRRGREGRRGRGRIEPIPAGEGEPSVHL [ASIC4]” belongs 1.34; to WETA [FAXDC2], 0.459.
Regarding WFC [HNRNPF], the median enrichment came to 2.6.
To WFFCFNKQQ [TMEM31] belongs 6.9; to “WFIFKGLCVTLTFPVVTCDCFVFVEEYCFYFEKRVFFLSMGLQGWCTTGPSMYSCIDFFT [CD109]”, 0.738.
In the case of WFSPVICSINGLIINVSLRHDKHFNTQ [DNAAF1], the median enrichment worked out at 13.3.
To WFST [SEMA3D] belongs 2.02.
For the substance WFYILTS [CLHC1], the median enrichment is 5.45.
To WGAAYQSLGSHLLRC [C11orf91] belongs 5.76.
With “WGAPQEGPVDLRRLHKKLMDHWSVPMGSIISSTLKMSKVCSFQTASPGSLGNAGKSKRISLALIT [ACSM5]”, the median enrichment stood at 17.8.
In the case of “WGATSFSTTMLLHFPTPTRPPSSPPTPFSHSHPHHRSLDCWEWKPGGVMAQVL [RAMP2]”, the median enrichment was determined as 8.95.
Consider WGC [PIGN], for which the median enrichment stood at 0.651.
As for WGCSGNSHSAPIRAPCRGPSVVSD [TBC1D14], the figure is 2.19; as for WGEKPQKGKLQTSWETCAKDFAD [CXCL14], 0.277; as for WGEPQTLRES [C7orf61], 0.458.
To WGFRSAT [KIF15] belongs 1.06.
As for “WGGLGCQCCRDPGCPGLWGRTGSPHPPTPAKGGASPESPPVRPSEPTSHPPSSQGVRAPDGPGRHPGGPATAGEGT [TMEM184A]”, the figure is 2.58; as for WGGLN [OR3A1], 1.04; as for “WGGPNLDSFPALGHRRPGSSARQAWARRAPGRALSAAGARPRTSAGTRESLLGRSVNKPFFLLFFKNCFSH [DUOXA2]”, 5.58.
As for “WGGVGPGRAGVCWHRQPPLWALGGPLKGSPTRGPDESFLSGVGSQRGSPPAAWGRAWPGRVIQRVCQPLTGSPSVAATRSTEL [FAM53B]”, the median enrichment was 5.84.
As for “WGHIQDNYTFAQPGIQMKVKMLEELVSRIDEQVHRHLDQHEVRYLQFAFRWMNNLLMREVPLRCTIRLWDTYQSEPDGFSHFH [TBC1D22A]”, the figure is 11.6; as for “WGHQSPQWTDAFDGQDEGQGHWSEGVDKTAAI [TBC1D21]”, 0.0629; as for “WGHRSEMRGLECGWAPGAMGGCGAGEIKSELLLPGVPTSSSGQSVHSQPDR [BCL2]”, 5.52.
As for “WGLRPHAPSHAVHPFSQVPNGPGSQDPGPSQNLCPPCP [SARDH]”, the figure is 9.03; as for “WGMFVPGKAGGEPLQHLYIQEACREELVCWPQEEWELQTRSSDSLWPESNLVSPPASLF [FGF1]”, 7.24.
As for “WGNKRKLSPESATSAPSIFSINALYQPQSSLFKLTPC [ZNF474]”, the figure is 8.63; as for WGPAWHPVTPPQCLSWP [CSHL1], 7.99.
WGPDSELEGGEIFKEKRGKWEGCKRGE [SOX2]: the median enrichment came out at 29.7.
To WGPGAFPRSSPSSI [RNASEK] belongs 0.405; to WGPGRGPGAVGT [INSYN1], 5.06.
To “WGPGSLHASALAPAGSKHRACPPHPEDLRAMPVPPHAGGCLGHLPAH [RHPN1]” belongs 3.51; to WGPPRARRTGTELSRGRSPRQAQLV [CDS2], 11.7; to “WGPVHAGGLRDPHNPQTQSPRALPKPLAWLQSRLRAGATYPCAGTCSLCSVLITPP [RUSC2]”, 7.23.
As for “WGQCLPAPPLASSSAPRVPSVDPIRPAMASYSKMV [ACO2]”, the figure is 0.96; as for “WGRDSVPLAVLPSLLVCQASPPTTPHQATPAASAFLGAERQPRPPVPSPPSHHRSSAPGRTVWPLPVPAMGSGWTPWAPPIAK [CAPN1]”, 7.5; as for “WGRRCGAVNFRPQRSQSMRGGGGGRGRRAKGGGAGASNPRQ [KISS1]”, 15.8.
With “WGSAQISVVRKPVPLGFSPHTTACRTLEWTQSSH [CA6]”, the median enrichment came to 7.98.
As for WGSCSGGRV [ZNF330], the figure is 0.598; as for WGSEPRPSGFTCLVKAFVMISLN [KRTAP5-10], 10.1.
As for “WGSGFVSAAAYPCPMCPPLPVLRASGMVQALRKVRVAVWEPLCLAPGYPGPGNLRAGERWGGRHAEVLLVTGLPSLTCTYLHP [SLC36A1]”, the figure is 4.72.
As for WGSVQGLSH [CST5], the figure is 0.711.
In the case of WGTKPRRIPPQ [CA10], the median enrichment was found to be 0.682.
To WGWGWTNNQARAEGFMERPLGDPR [S1PR2] belongs 3.36; to WGWKGPEG [SLC35B2], 1.98; to “WGWRQLSSRSLGFAALAAVTRNCPGLGGELGGP [ACP7]”, 8.55.
For the substance “WGWTPVPAGRSPDMWTCSFVPTVHAGLRLEPRGAGQFTGSCRTRCQPLRGGTADARGFAHPGPSVPRAK [ITPKA]”, the median enrichment worked out at 6.95.
As for WGYWPTLWAPCSA [EFCC1], the figure is 7.99; as for WHHLIDYGTRKSEGFHIR [PLPP6], 7.61.
With “WHLFPPCLPLPLFWGHPFPPWLSPLKVSPPLGAFLEPCVSEWSPHSIVPRVCPQTLHLALLGRN [SNRPA]”, the median enrichment worked out at 10.5.
Take “WHLTNHSTEHTFIFVSAFVLKLSKYIHLCNRNL [ADGRV1]”: the median enrichment amounted to 13.2.
As for WHPCTQEDSAFTKHFHCLAKV [GPR12], the figure is 11.3; as for WHRRTPGDFLYICRLRLFVTSKWDIV [TAF4], 5.8; as for WIEKI [GTF2A2], 1.64.
As for WILAELLCT [COPS4], the figure is 5.2.
As to “WIPQGTTEAKELEVFSRGTDGLRALMMLPEVCKSFMS [LOR]”, the median enrichment came to 10.9.
On to WKDN [PIK3CA], for which the median enrichment came out at 0.482.
In the case of WKGRAQQCK [IRX2], the median enrichment was found to be 0.459.
WKHFLPKVSGLRYTSIQQCIVIKILFQS [OR2L3]: the median enrichment turned out to be 7.3.
Take WKK [JAK2]: the median enrichment was determined as 0.476.
To WKLRF [TRMT11] belongs 1.93.
As for WKLYMLRDVLLSGSIELPLSVNFKV [PDCD10], the figure is 11; as for WKMKIP [N4BP2L2], 1.67; as for WKRD [RER1], 0.349.
To “WKRLGRGSGRGLSPPEAGKESLFSHMIFRVLETHSCRSCRTLEFLGNCPAS [GPR83]” belongs 13.9; to “WKTCSLSILPMKIHFTHPPPLLFCHVFPSLCIARFEVTDTHPKPCCSQSPILHILMGK [SYNJ2BP]”, 7.06; to WLEWIYDVPLRRSISATILI [HMGCLL1], 12.2.
In the case of WLFCKSVLGGPSLRV [OR9A2], the median enrichment was 4.81.
As for WLHNPVYAFCTKKK [ZSCAN5A], the figure is 8.24.
To WLHW [RIMKLB] belongs 3.98; to WLLITLSHFLVMH [KRTAP22-2], 13.9.
As for WLQNY [IFNAR2], the figure is 10.5; as for WLQPAKSILLFHFFHDGAV [CTSK], 8.37.
Regarding WLQTC [RAB39A], the median enrichment stood at 5.31.
As for WLSF [KRT28], the figure is 6.06; as for WLSLRKGRRRGAQGHLLP, 28.3; as for “WLTAALAHSARGQDGGYLRPVLSCLFVFLIRDHVGLLRTRKAGKFPAGPSA [MKS1]”, 10.7.
For WLTLSLCCLLLS [SIRPB1], the median enrichment was 18.9.
Regarding WLVAIFQHSSCIL [LVRN], the median enrichment turned out to be 13.3.
As for “WLVGLGSSARTSSPALAVVVQALQSAAGLFIKGIYICK [NRN1L]”, the figure is 7.25; as for WLVTEDEDNSITKLF [CD58], 17.6.
Regarding WLYESFCHKVPKRRGMGRVPQHVVTA [DSN1], the median enrichment was 11.
As for WLYLRFEAGKPDR [UGT2B10], the median enrichment was 6.76.
As for WMLSRSWRFKKKCRMAV [OR52D1], the figure is 23.1; as for WMQLVCHSI [SERPINB4], 10.7; as for “WMSMSEGKENFGHQNPAPSELKELIYFMKLILLCVCSWC [GALNT15]”, 26.8.
To “WMVLSAGSPLRSGQRKMGGCSSPPQHNDQPPS [NLRP12]” belongs 13.1; to WNEKYCGHLNNGLVSYNEMFSRILK [UGP2], 3.44.
As for “WNEPWSPLQSSPWDRDVAGQNSQLCVCVFRLIGNSKSLLPAPSKLDGQWSGIETVV [IL18RAP]”, the figure is 5.03.
On to WNFENKI [RNASEH2B], for which the median enrichment is 0.528.
As for WNHRSGRSRALSSCTVFIVPGTLFKDI [LIN7B], the figure is 4.84.
As for “WNLLSMILPATPLPSLAQSRGAMLSAHPSCTLAPCSRDVSTHSLC [MYPOP]”, the figure is 7.81; as for WNMKAEMQQTTSA [MNDA], 0.66; as for WNQS [CFHR1], 0.596.
To WNR [ZC3HAV1] belongs 0.487; to WNRIEQNRIE [PCSK5], 0.778.
For WPDLSERHGYHRMKVEL [CUTC], the median enrichment was 12.

The values above are taken from the supplement of paper PMC11502859.
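Also: lentiviral eGFP-IRES-mCherry reporter pool sorted by FACS 96 h post-transduction, gated on mCherry-high cells, Illumina read counts normalized per million, median across four biological replicates.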
